For series [1], the target named is native bovine aggrecan, fully glycosylated, P13608.
Series [2] concerns the target T1, native bovine biglycan, P21809.
T1 chain: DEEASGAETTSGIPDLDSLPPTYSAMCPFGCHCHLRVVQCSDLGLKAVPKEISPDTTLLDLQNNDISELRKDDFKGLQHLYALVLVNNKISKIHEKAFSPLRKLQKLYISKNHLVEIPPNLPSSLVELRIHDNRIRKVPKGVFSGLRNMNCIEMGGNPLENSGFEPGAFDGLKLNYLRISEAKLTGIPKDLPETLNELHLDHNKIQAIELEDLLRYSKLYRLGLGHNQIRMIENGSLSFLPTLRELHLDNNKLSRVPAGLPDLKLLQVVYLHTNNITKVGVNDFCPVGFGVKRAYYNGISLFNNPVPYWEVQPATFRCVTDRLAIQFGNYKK

Series [3] has as its target native bovine casein.
Series [4] addresses T2, native bovine decorin, P21793.
T2 chain: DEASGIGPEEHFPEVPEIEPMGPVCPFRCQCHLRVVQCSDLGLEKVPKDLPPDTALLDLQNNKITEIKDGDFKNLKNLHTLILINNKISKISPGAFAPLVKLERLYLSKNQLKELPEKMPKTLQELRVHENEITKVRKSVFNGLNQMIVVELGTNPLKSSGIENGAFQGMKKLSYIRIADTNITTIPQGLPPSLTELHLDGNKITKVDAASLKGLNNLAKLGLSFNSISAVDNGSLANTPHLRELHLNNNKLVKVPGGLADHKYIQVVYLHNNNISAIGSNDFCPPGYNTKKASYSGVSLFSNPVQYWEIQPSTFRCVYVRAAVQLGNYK

For series [5], the target named is native human plasma fibronectin, P02751.
Series [6] addresses T3, recombinant human E-cadherin, P12830.
T3 chain: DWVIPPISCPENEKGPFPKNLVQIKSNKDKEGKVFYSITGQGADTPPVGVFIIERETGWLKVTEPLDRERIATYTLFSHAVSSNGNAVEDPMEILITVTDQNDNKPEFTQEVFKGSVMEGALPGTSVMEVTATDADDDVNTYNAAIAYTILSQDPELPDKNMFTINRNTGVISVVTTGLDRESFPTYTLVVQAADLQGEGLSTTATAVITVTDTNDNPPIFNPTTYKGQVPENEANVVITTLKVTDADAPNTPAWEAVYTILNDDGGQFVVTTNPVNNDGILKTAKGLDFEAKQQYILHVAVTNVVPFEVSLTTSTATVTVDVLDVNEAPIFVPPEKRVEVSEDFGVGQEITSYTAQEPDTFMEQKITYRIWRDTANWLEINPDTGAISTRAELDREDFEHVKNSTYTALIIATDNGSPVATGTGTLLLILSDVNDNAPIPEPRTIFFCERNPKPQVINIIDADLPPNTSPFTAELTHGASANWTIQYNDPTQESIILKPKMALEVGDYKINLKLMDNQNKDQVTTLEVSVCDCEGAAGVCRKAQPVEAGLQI

Series [7] concerns the target recombinant human aggrecan (G1-IGD-G2 domains), P16112.
The target of series [8] is T4, recombinant human biglycan, P21810.
T4 chain: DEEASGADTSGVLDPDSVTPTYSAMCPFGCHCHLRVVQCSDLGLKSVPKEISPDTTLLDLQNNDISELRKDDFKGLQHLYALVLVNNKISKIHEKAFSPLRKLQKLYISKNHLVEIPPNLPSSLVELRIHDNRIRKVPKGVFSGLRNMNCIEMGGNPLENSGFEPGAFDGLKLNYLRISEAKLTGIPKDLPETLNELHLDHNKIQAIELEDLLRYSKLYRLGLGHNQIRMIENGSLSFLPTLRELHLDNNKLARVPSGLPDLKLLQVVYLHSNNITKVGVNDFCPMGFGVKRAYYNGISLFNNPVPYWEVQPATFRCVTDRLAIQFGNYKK

Series [9] deals with T5, recombinant human brevican, Q96GW7.
T5 chain: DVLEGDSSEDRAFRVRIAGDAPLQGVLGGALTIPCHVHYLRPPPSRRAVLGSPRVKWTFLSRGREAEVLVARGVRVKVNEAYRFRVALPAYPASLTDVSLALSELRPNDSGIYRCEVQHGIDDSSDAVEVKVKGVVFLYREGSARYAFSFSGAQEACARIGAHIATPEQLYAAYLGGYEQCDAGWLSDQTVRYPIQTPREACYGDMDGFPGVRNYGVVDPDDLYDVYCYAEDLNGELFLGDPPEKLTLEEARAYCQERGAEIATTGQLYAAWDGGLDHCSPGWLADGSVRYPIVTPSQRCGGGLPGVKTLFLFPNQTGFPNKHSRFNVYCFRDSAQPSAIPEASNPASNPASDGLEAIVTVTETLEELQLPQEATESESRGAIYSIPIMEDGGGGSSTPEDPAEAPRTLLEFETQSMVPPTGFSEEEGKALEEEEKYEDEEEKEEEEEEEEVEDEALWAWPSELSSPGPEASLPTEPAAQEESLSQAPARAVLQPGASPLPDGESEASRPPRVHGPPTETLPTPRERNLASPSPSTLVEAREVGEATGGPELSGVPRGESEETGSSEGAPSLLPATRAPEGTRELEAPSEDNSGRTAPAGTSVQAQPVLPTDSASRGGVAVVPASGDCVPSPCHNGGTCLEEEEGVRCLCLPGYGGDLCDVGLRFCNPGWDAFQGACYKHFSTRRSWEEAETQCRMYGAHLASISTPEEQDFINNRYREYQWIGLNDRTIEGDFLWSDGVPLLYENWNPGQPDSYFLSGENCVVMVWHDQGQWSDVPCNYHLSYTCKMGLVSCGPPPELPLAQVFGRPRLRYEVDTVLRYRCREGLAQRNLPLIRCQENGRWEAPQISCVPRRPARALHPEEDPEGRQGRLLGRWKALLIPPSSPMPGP

Series [10] concerns the target T6, recombinant human decorin, P07585.
T6 chain: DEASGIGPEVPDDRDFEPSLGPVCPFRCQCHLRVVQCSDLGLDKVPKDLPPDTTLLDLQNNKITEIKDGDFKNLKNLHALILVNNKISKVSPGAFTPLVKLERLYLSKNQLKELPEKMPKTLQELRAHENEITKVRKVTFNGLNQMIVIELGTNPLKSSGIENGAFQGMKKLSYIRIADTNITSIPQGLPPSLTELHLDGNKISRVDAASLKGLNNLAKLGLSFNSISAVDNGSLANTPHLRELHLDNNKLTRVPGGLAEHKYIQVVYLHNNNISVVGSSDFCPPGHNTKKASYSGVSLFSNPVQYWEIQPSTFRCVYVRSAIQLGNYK

Series [11] deals with recombinant human neurocan, O14594.
The target in series [12] is recombinant human versican, P13611.
The target in series [13] is β-casein (in 12% β-casein Zymogram Ready Gels, Bio-Rad).

Where a chain is given by its changes, count along the chain named. Names may count otherwise.

Chain of recombinant human aggrecan (G1-IGD-G2 domains), P16112 (P16112 20-675): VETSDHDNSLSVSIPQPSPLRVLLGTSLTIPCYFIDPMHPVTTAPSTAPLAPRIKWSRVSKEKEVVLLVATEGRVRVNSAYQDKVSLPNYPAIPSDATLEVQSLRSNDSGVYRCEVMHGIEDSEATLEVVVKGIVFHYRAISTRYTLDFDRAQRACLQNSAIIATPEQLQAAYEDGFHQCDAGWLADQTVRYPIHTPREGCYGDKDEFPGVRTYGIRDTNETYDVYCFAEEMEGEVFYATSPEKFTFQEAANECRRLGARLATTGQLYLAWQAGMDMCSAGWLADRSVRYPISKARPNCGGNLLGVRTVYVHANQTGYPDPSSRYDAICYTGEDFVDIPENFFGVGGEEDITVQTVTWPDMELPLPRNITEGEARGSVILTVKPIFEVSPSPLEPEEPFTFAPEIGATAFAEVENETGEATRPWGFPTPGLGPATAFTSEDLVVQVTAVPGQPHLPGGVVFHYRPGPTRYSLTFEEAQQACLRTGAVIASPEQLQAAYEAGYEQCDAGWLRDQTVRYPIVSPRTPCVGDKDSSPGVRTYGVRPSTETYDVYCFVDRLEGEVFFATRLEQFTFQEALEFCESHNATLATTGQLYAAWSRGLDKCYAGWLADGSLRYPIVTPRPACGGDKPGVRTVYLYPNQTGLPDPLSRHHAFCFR
Chain of recombinant human neurocan, O14594 (O14594 23-1321): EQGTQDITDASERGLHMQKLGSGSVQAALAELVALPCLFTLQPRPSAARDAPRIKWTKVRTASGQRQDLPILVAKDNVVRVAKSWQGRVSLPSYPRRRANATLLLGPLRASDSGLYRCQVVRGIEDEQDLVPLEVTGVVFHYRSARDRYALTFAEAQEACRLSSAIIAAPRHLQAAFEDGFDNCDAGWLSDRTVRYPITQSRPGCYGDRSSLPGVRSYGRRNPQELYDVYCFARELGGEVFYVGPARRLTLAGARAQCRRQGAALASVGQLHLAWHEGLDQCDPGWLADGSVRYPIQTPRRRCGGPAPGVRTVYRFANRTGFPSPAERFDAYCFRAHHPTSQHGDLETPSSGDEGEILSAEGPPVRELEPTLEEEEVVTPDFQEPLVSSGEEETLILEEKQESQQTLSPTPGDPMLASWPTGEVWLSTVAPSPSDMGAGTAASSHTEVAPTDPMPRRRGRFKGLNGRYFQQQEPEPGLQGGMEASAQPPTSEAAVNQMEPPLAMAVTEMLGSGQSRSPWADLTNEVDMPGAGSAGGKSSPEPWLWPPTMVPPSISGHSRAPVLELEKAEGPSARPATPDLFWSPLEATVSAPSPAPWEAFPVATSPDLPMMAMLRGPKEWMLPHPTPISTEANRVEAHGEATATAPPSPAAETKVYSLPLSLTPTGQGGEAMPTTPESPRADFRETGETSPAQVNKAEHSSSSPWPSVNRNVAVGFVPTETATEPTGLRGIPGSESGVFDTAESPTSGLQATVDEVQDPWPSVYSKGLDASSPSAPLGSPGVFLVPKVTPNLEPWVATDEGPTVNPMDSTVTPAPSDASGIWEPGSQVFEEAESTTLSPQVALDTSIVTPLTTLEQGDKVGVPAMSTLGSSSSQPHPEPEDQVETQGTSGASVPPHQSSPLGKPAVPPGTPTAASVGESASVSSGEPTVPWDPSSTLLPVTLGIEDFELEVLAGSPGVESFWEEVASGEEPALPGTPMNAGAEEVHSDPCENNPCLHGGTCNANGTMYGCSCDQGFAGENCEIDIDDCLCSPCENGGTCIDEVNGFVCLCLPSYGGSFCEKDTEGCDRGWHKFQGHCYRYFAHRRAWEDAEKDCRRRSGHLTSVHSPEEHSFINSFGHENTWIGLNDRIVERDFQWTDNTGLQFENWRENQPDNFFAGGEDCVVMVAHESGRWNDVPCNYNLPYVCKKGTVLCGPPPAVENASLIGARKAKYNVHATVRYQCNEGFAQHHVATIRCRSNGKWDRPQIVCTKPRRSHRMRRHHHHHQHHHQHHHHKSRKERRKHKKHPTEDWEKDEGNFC
Chain of native human plasma fibronectin, P02751 (P02751 other isoform, or with tags, fused parts or gaps): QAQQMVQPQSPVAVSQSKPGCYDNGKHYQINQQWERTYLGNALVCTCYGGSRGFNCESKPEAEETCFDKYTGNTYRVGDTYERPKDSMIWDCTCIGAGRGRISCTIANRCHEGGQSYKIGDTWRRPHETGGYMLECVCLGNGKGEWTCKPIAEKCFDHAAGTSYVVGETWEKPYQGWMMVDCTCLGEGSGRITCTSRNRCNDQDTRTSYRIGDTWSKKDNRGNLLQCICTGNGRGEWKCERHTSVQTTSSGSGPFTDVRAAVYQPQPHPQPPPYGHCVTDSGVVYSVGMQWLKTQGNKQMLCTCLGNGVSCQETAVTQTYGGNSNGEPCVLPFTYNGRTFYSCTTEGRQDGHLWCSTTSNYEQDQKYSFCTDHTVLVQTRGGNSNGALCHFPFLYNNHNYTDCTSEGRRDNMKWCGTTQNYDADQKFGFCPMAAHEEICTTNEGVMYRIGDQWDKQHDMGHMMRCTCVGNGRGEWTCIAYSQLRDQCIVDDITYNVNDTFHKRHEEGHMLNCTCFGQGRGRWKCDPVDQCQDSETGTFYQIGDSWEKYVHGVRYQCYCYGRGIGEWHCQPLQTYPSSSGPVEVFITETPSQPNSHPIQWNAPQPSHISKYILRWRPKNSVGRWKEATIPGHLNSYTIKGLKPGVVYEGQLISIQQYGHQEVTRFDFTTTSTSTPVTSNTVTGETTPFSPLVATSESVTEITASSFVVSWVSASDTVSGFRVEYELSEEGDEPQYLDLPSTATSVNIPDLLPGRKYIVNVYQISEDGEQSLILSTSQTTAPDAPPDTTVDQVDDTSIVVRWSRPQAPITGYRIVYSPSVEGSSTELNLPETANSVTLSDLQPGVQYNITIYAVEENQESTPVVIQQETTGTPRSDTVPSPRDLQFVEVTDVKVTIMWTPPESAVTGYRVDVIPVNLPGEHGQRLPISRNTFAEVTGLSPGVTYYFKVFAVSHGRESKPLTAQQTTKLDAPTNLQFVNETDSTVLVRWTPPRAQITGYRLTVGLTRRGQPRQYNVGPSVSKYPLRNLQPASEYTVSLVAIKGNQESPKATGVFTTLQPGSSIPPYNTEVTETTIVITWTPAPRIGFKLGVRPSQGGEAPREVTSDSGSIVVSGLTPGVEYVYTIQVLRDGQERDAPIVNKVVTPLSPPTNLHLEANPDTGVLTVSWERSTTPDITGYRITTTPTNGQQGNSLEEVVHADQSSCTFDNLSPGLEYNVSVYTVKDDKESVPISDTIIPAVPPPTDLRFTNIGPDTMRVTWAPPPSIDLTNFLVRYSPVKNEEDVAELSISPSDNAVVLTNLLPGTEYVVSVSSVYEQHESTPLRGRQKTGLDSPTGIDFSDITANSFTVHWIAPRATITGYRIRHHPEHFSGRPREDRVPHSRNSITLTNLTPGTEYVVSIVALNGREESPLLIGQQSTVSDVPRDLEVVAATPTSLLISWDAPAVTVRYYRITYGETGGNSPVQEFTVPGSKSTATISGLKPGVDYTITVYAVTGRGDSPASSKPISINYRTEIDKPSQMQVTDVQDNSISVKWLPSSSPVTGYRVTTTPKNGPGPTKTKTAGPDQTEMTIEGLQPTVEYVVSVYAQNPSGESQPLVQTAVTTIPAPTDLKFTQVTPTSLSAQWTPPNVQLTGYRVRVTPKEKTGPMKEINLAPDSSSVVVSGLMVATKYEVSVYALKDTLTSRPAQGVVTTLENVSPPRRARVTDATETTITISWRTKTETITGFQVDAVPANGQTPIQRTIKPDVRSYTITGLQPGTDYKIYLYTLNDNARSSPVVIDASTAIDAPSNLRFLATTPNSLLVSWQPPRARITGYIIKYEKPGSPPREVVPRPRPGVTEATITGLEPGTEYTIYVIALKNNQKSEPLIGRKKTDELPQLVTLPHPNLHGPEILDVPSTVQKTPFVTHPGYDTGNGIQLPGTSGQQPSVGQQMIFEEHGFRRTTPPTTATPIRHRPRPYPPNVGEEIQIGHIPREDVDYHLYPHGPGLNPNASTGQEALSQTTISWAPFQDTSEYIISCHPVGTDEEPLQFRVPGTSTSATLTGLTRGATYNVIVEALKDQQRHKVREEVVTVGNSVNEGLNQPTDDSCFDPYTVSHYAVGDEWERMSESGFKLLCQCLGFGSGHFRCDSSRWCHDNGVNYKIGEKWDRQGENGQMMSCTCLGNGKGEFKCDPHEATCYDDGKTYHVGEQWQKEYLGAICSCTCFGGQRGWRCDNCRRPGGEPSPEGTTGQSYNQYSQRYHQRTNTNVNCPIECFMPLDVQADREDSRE

B1: Borrelia burgdorferi HtrA (BB0104, BbHtrA), recombinant wild type mature protein (amino acids 38-474), His-tagged, made in E. coli (protein)
chain: EEKDNTVRALQDSFREVSKKILPSSVEVHATGVIKQSFPIPFFFFDMPEFDSERKSNWAGSGVIIGRDSQKKSLFYVVTNSHVVDKATELEVVSYDKKKHKAKLIGKDEKKDIALISFESDDATIKVADLGDSDKLEIGDWVMAVGSPFQFSFTVTAGIVSGLQRSANPNLQSRNLFIQTDAAINRGNSGGPLVNIKGEVIGINAWIASNSGGNIGLGFAIPVNNIKSTVDFFLKGKKIESAWLGISFYPLKTRDSEVLKSLGVESNDVSAAIIASLYPGSPAVKSGLRAGDIIMKVNGVSMSVFQDVTSYISDFYAGEKVNVEILRGNVKKNIEIVLAVRPKDKELSSSKMLPGFVVYPLVEDIKAQLNLRNWIKGVVVDYIDKNLASNIKMKSGDVILSVNSKSVSNLREFYDALEVGKNTYKILRGNDSFKITF
Consider B1, for which the Proteolytic activity result in series [1], in [2], in [3], in [4], in [5] and in series [6] was “+” in each case. For the same protein, the Proteolytic activity result in series [7], in [8], in [9], in [10], in series [11] and in series [12] was “+” each time. For the same protein, the β-casein zymography entry in [13] is “Recombinant BbHtrA was proteolytically active against β-casein as evidenced by clearing around the protein band”.

B2: Borrelia burgdorferi HtrA (BB0104, BbHtrA^S226A), recombinant inactive mutant, mature protein (amino (protein)
chain: B1 chain with S189A
B2: in series [7], the “proteolytic fragments on silver-stained SDS-PAGE” value was “incubation of recombinant aggrecan (FIG. 4A, lane 1) alone or with the inactive mutant (FIG. 4A, lane 6) failed to generate these fragments”.

These data come from patent US20170030911.
